US20250282879A1
Like-named read-outs stand apart in the source and are kept apart here.

Tests used:
[1] = molecular target: cynomolgus IL-4R ECD (cynomolgus monkey (Macaca fascicularis)); assay: SPR, direct setup, cynomolgus IL-4R ECD immobilized
[2] = molecular target: marmoset IL-4R ECD (marmoset (Callithrix jacchus)) (UniProt Q0PIT7); assay: SPR, direct setup, marmoset IL-4R ECD immobilized
[3] = molecular target: human IL-4R on cells (HEK-Blue IL-4/IL-13 cells, human PBMC, human whole blood) (human) (UniProt P24394); assay: cell-based or functional assay
Human IL-4R-Fc (human) = Human IL-4R-Fc (human) (UniProt P24394); assay: SPR, hIL-4R-Fc captured, scFv analyte
[4] = molecular target: cynomolgus IL-4R-Fc (cynomolgus monkey (Macaca fascicularis)); assay: SPR, capture setup, cynomolgus IL-4R-Fc captured
[5] = molecular target: recombinant cynomolgus monkey IL-31 (ECD with His Tag, Sino Biological) (cynomolgus monkey); assay: SPR, IL-31-His captured, scFv analyte (30 and 10 nM)
[6] = molecular target: recombinant human IL-31 protein (Peprotech) (human) (UniProt Q6EBC2); assay: cell-based or functional assay
[7] = molecular target: recombinant cynomolgus monkey IL-31 (ECD with His Tag, Sino Biological) (cynomolgus monkey); assay: SPR, IL-31-His captured, scFv analyte, screening mode
[8] = molecular target: recombinant cynomolgus monkey IL-31 (ECD with His Tag, Sino Biological) (cynomolgus monkey); assay: SPR, IL-31-His captured, scFv analyte, full titration mode
[9] = molecular target: recombinant human IL-31 protein (Peprotech) (human) (UniProt Q6EBC2)
[10] = molecular target: recombinant human IL-31 protein (Peprotech) (human) (UniProt Q6EBC2); remark: listed apart in the source
[11] = molecular target: recombinant human IL-31 protein (Peprotech) (human) (UniProt Q6EBC2); remark: listed apart in the source
[12] = molecular target: recombinant cynomolgus monkey IL-31 (ECD with His Tag, Sino Biological) (cynomolgus monkey)
[13] = molecular target: recombinant human IL-31 protein (Peprotech) (human) (UniProt Q6EBC2); remark: listed apart in the source

cynomolgus IL-4R ECD (cynomolgus monkey (Macaca fascicularis)), sequence (A0A2K5 entry or part of it limits assumed): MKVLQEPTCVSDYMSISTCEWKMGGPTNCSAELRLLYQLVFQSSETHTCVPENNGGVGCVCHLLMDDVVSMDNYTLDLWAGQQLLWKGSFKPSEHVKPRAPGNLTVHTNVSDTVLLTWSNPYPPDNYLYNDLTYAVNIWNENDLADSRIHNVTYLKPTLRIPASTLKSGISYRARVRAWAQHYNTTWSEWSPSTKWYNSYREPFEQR
cynomolgus IL-4R-Fc (cynomolgus monkey (Macaca fascicularis)), sequence (chain, as listed by the source): as the sequence (A0A2K5 entry or part of it limits assumed) above
recombinant human IL-31 protein (Peprotech) (human), sequence (Q6EBC2 24-164 limits assumed): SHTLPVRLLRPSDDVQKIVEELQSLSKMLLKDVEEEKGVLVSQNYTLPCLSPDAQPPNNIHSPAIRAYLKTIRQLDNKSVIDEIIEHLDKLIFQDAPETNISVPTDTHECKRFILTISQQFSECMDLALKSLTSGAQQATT
marmoset IL-4R ECD (marmoset (Callithrix jacchus)), sequence (Q0PIT7 entry or part of it limits assumed): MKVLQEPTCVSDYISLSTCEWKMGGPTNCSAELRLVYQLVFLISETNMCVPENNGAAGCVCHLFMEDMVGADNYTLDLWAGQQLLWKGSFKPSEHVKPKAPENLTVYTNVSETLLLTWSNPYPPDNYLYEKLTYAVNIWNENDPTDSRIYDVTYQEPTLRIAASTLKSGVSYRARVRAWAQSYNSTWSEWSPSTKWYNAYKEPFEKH

B1: PRO1517 (scFv, V domains shown)
VH: EVQLVESGGGLVQPGGSLRLSCAASGFSSSSAHYMCWVRQAPGKGLEWIGCIYAGSRGSTYYASWAKGRFTISRDNSKNTVYLQMNSLRAEDTAVYYCARAAFVNRGVSWIWPYYFSLWGQGTLVTVSS
VL: DIQMTQSPSSLSASVGDRVTITCQASEDIESYLAWYQQKPGKAPKLLIYRASTLAYGVPSRFSGSGSGTDFTLTISSLQPEDFATYYCLGSSYSTGSNIFGTGTKVTVLG
Kd [1]: 0.681 nM | koff [1]: 0.000404 s⁻¹ | kon [1]: 594000 M⁻¹ s⁻¹ | Kd [2]: 0.392 nM | koff [2]: 0.00105 s⁻¹ | kon [2]: 2.67e+06 M⁻¹ s⁻¹ | IC50, neutralization of hIL-4-induced signaling, stat-6 reporter gene assay [3]: 1.44 ng/mL | IC50, neutralization of hIL-13-induced signaling, stat-6 reporter gene assay [3]: 1.83 ng/mL | rel. IC50 (IC50, dupilumab/IC50, test sample), hIL-4 [3]: 0.39 | rel. IC50 (IC50, dupilumab/IC50, test sample), hIL-13 [3]: 0.57 | Kd (Human IL-4R-Fc (human)): 0.0055 nM | koff (Human IL-4R-Fc (human)): 1.95e-05 s⁻¹ | kon (Human IL-4R-Fc (human)): 3.55e+06 M⁻¹ s⁻¹ | Kd [4]: 0.0946 nM | koff [4]: 0.000182 s⁻¹ | kon [4]: 1.92e+06 M⁻¹ s⁻¹

B2: PRO1898 (scFv, V domains shown)
VH: EVQLVESGGGLVQPGGSLRLSCAASGFSSSSAHYMCWVRQAPGKGLEWIGCIYAGSRGSTYYASWAKGRFTISRDNSKNTVYLQMNSLRAEDTAVYYCARAAFVNRGVSWIWPYYFSLWGQGTLVTVSS
VL: DIQMTQSPSSLSARVGDRVTITCQASEDIESYLAWYQQKPGKAPKLLIYRASTLAYGVPSRFSGSGSGRDFTLTISSLQPEDFATYYCLGSSYSTGSNIFGTGTKVTVLG
IC50, neutralization of hIL-4 induced signaling, stat-6 reporter gene assay [3]: 1 ng/mL | IC50, neutralization of hIL-13 induced signaling, stat-6 reporter gene assay [3]: 1.15 ng/mL | rel. IC50 (IC50, dupilumab/IC50, test sample), hIL-4 [3]: 1.15 | rel. IC50 (IC50, dupilumab/IC50, test sample), hIL-13 [3]: 0.87

B3: PRO1899 (scFv, V domains shown)
VH: EVQLVESGGGRVQPGGSLRLSCAASGFSSSSAHYMCWVRQAPGKGLEWIGCIYAGSRGSTYYASWAKGRFTISKASSTTVYLQMNSLRAEDTATYYCARAAFVNRGVSWIWPYYFSLWGQGTQVTVSS
VL: DIQMTQSPSSLSASVGDRVTITCQASEDIESYLAWYQQKPGKAPKLLIYRASTLAYGVPSRFSGSGSGTDFTLTISSLQPEDFATYYCLGSSYSTGSNIFGTGTKVTVLG
IC50, neutralization of hIL-4 induced signaling, stat-6 reporter gene assay [3]: 0.71 ng/mL | IC50, neutralization of hIL-13 induced signaling, stat-6 reporter gene assay [3]: 0.56 ng/mL | rel. IC50 (IC50, dupilumab/IC50, test sample), hIL-4 [3]: 1.61 | rel. IC50 (IC50, dupilumab/IC50, test sample), hIL-13 [3]: 1.8

B4: PRO1900 (scFv, V domains shown)
VH: QSQLVESGGGRVQPGGSLRLSCAASGFSFSANYWICWVRQAPGKGLEWIVCIYIGSRADTYYAPWAKGRFTISKDNSKNTVYLQMNSLRAEDTATYFCARFSSGIYDLDRFFLWGQGTQVTVSS
V domain: AFQLTQSPSSLSASVGDRVTITCQASQSIDSWLAWYQQKPGKPPKLLIYQASKLASGVPSRFSGSGSGTDYTLTISSLQPEDFATYYCQTYYGGGHIGWGFGTGTKVTV
Kd [5]: 1.07 nM | koff [5]: 0.000594 s⁻¹ | kon [5]: 554000 M⁻¹ s⁻¹ | IC50, neutralization of hIL-31-induced signaling in IL-31RA/OSMR dimerization assay [6]: 8.21 ng/mL | rel. IC50 (IC50, BMS-981164/IC50, test sample) [6]: 0.73

B5: PRO1643 (scFv, V domains shown)
VH: QSQLVESGGGLVQPGGSLRLSCAASGFSFSANYWICWVRQAPGKGLEWIVCIYIGSRADTYYAPWAKGRFTISKDNSKNTVYLQMNSLRAEDTAVYFCARFSSGIYDLDRFFLWGQGTLVTVSS
V domain: AFQLTQSPSSLSASVGDRVTITCQASQSIDSWLAWYQQKPGKPPKLLIYQASKLASGVPSRFSGSGSGTDYTLTISSLQPEDFATYYCQTYYGGGHIGWGFGTGTKVTV
Kd [7]: 0.583 nM | koff [7]: 0.000444 s⁻¹ | kon [7]: 761000 M⁻¹ s⁻¹ | Kd [5]: 1.17 nM | koff [5]: 0.000587 s⁻¹ | kon [5]: 501000 M⁻¹ s⁻¹ | Kd [8]: 0.557 nM | koff [8]: 0.000426 s⁻¹ | kon [8]: 764000 M⁻¹ s⁻¹

B6: PRO1903 (scFv, V domains shown)
VH: QSQLVESGGGLVQPGGSLRLSCAASGFSFSANYWICWVRQAPGKGLEWIVCIYIGSRADTYYAPWAKGRFTISKDNSKNTVYLQMNSLRAEDTAVYFCARFSSGIYDLDRFFLWGQGTLVTVSS
V domain: AFQLTQSPSSLSASVGDRVTITCQASQSIESWLAWYQQKPGKPPKLLIYQASKLASGVPSRFSGSGSGTDYTLTISSLQPEDFATYYCQTYYGGGHIGWGFGTGTKVTV
Kd [5]: 1.39 nM | koff [5]: 0.000605 s⁻¹ | kon [5]: 434000 M⁻¹ s⁻¹ | IC50, neutralization of hIL-31-induced signaling in IL-31RA/OSMR dimerization assay [6]: 7.98 ng/mL | rel. IC50 (IC50, BMS-981164/IC50, test sample) [6]: 1.49

B7: BMS-981164 (antibody, from another filing, V domains shown)
VH: QVQLVQSGAEVKKPGASVKVSCKASGYTLTRYWMQWVRQAPGQGLEWMGAIYPGDGDTRYSQKFQGRVTLTADKSTSTAYMELSSLRSEDTAVYYCAFPDGYYAAPYGMDYWGQGTLVTVSS
VL: DIQMTQSPSSLSASVGDRVTITCRASGNIHNYLAWYQQKPGKVPKLLIYNAKTLADGVPSRFSGSRSETQYSLTISSLQPEDVATYYCQHFWSTPWTFGQGTKVEIKR
IC50 (read off the curve), human IL-31-induced IL-31RA/OSMR dimerization [9]: 0.06 nM | IC50 (read off the curve), human IL-31-induced IL-31RA/OSMR dimerization [10]: 0.07 nM | IC50 (read off the curve), human IL-31-induced IL-31RA/OSMR dimerization [11]: 0.1 nM | IC50, cynomolgus IL-31-induced IL-31RA/OSMR dimerization (RLU) [table under the graph] [12]: 0.178 nM | IC50 (read off the curve), human IL-31-induced IL-31RA/OSMR dimerization [13]: 0.2 nM
